Earlier results in patent US12233109B2, “Long-acting GLP-1r agonist as a therapy of neurological and neurodegenerative conditions” (The Johns Hopkins University, priority 2015, dated 2025).

Settings: in vivo

## Albiglutide: dipeptidyl peptidase-4-resistant glucagon-like peptide-1 dimer fused to human albumin
  half-life: four to seven
